In the supplement of paper PMC7877785:
± gives the uncertainty stated by the source.

Assay: self-splicing fitness, log relative to wild type (ln ratio); higher = more splicing; Tetrahymena group I intron in knt gene, E. coli kanamycin selection, DiMSum; sequences stand for … in CUCUCU…GGAGGGAAAAGUUAUCAGGCAUGCACCUGGUAGCUAGUCUUUAAACCAAUAGAUUGCAUCGGUUUAAAAGGCAAGACCGUCAAAUUGCGGGAAAGGGGUCAACAGCCGUUCAGUACCAAGUCUCAGGGGAAACUUUGAGAUGGCCUUGCAAAGGGUAUGGUAAUAAGCUGACGGACAUGGUCCUAACCACGCAGCCAAGUCCUAAGUCAACAGAUCUUCUGUUGAUAUGGAUGCAGUUCACAGACUAAAUGUCGGUCGGGGAAGAUGUAUUCUUCUCAUAAGAUAUAGUCGGACCUCUCCUUAAUGGGAGCUAGCGGAUGAAGUGAUGCAACACUGGAGCCGCUGGGAACUAAUUUGUAUGCGAAAGUAUAUUGAUUAGUUUUGGAGUACUCGUGGUCG
How it was run: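 DiMSum derived fitness as the error-weighted combination of fold changes across replicates, kanamycin versus no kanamycin, normalised to wild type. E. coli BL21(DE3) held the library, which randomised all eight P1ex-region intron nucleotides within the knt kanamycin-resistance gene on pET-22b(+). Six replicate transformations grew overnight at 37°C or 30°C on LB agar with or without 25 μg/mL kanamycin, also containing 100 μg/mL carbenicillin, 50 μM IPTG and 0.2% rhamnose, and pooled colonies were amplicon-sequenced on an Illumina HiSeq 2500.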

Sequence | self-splicing fitness (ln) (30 °C) | self-splicing fitness (ln) (37 °C)
GCUCAGCAAUAUUACGGGUA | -0.401 ± 0.077 | -0.454 ± 0.078
GCUCAGCAAUAUUACGGUUC | -0.806 ± 0.065 | 0.0632 ± 0.071
GCUCAGCAAUAUUACGGUUU | -0.112 ± 0.059 | 0.228 ± 0.073
GCUCAGCAAUAUUACGUAUA | -1.73 ± 0.096 | -0.338 ± 0.085
GCUCAGCAAUAUUACGUUAG | -2.79 ± 0.13 | -0.765 ± 0.12
GCUCAGCAAUAUUACGUUUC | -0.455 ± 0.065 | -0.0579 ± 0.091
GCUGAGCAAUAUUACGAAAU | -3.27 ± 0.2 | -2.43 ± 0.22
GCUGAGCAAUAUUACGACGC | – | -1.7 ± 0.42
GCUGAGCAAUAUUACGAGGA | -2.31 ± 0.16 | -2.48 ± 0.18
GCUGAGCAAUAUUACGAGUC | – | -2.04 ± 0.25
GCUGAGCAAUAUUACGAUAA | -3.51 ± 0.4 | -3.27 ± 0.35
GCUGAGCAAUAUUACGCAUA | -3.37 ± 0.3 | -1.82 ± 0.17
GCUGAGCAAUAUUACGCCAA | – | -3.52 ± 0.46
GCUGAGCAAUAUUACGCGGU | -3.6 ± 0.21 | -2.02 ± 0.3
GCUGAGCAAUAUUACGCUCU | -1.12 ± 0.17 | -0.769 ± 0.2
GCUGAGCAAUAUUACGCUGC | -2.56 ± 0.32 | -1.92 ± 0.3
GCUGAGCAAUAUUACGGCCA | -2.02 ± 0.28 | -1.9 ± 0.38
GCUGAGCAAUAUUACGGGCU | -1.89 ± 0.31 | –
GCUGAGCAAUAUUACGGGGA | -2.81 ± 0.3 | -2.03 ± 0.32
GCUGAGCAAUAUUACGGGGG | -2.59 ± 0.2 | -1.8 ± 0.21
GCUGAGCAAUAUUACGGUAG | -3.27 ± 0.24 | -3.11 ± 0.3
GCUGAGCAAUAUUACGUAAU | -3.77 ± 0.24 | -1.29 ± 0.14
GCUGAGCAAUAUUACGUCGA | -1.34 ± 0.24 | -1.72 ± 0.24
GCUGAGCAAUAUUACGUCUC | – | -1.16 ± 0.35
GCUGAGCAAUAUUACGUUGU | -3.56 ± 0.14 | -2.83 ± 0.17
GCUUAGCAAUAUUACGAGUG | -0.38 ± 0.096 | -0.545 ± 0.11

Sequence | self-splicing fitness (ln) (30 °C) | self-splicing fitness (ln) (37 °C)
GCUUAGCAAUAUUACGAUGA | -0.547 ± 0.12 | -0.556 ± 0.12
GCUUAGCAAUAUUACGCAGU | -2.45 ± 0.25 | -3.16 ± 0.47
GCUUAGCAAUAUUACGCCCA | -1.96 ± 0.24 | -0.0842 ± 0.23
GCUUAGCAAUAUUACGCCUG | -2.35 ± 0.14 | -1.02 ± 0.13
GCUUAGCAAUAUUACGCGAA | -2.55 ± 0.11 | -1.98 ± 0.11
GCUUAGCAAUAUUACGCGUA | -1.39 ± 0.16 | -1.71 ± 0.17
GCUUAGCAAUAUUACGCUGA | -2.77 ± 0.17 | -3.37 ± 0.26
GCUUAGCAAUAUUACGGCAG | -4.61 ± 0.46 | -2.63 ± 0.34
GCUUAGCAAUAUUACGGCAU | -1.79 ± 0.17 | -1.61 ± 0.2
GCUUAGCAAUAUUACGGCGA | -1.75 ± 0.14 | -1.33 ± 0.16
GCUUAGCAAUAUUACGGGAU | -1.56 ± 0.074 | -0.453 ± 0.09
GCUUAGCAAUAUUACGGGGG | -1.53 ± 0.11 | -1.54 ± 0.15
GCUUAGCAAUAUUACGGUAA | -2.18 ± 0.14 | -1.54 ± 0.13
GCUUAGCAAUAUUACGUCAC | – | -1.53 ± 0.5
GCUUAGCAAUAUUACGUCGU | -0.74 ± 0.097 | 0.231 ± 0.14
GCUUAGCAAUAUUACGUGUA | -1.03 ± 0.077 | -0.175 ± 0.083
GGAAAGCAAUAUUACGAAGG | -3.22 ± 0.23 | -2.5 ± 0.38
GGAAAGCAAUAUUACGAGAU | -2.44 ± 0.17 | -2.17 ± 0.29
GGAAAGCAAUAUUACGAGUC | -0.868 ± 0.11 | -1.48 ± 0.12
GGAAAGCAAUAUUACGAUCA | 0.0514 ± 0.081 | -0.282 ± 0.099
GGAAAGCAAUAUUACGCAGU | -2.78 ± 0.13 | -1.47 ± 0.12
GGAAAGCAAUAUUACGCAUU | -2.5 ± 0.12 | -2.55 ± 0.25
GGAAAGCAAUAUUACGCCAU | -1.76 ± 0.18 | -0.946 ± 0.31
GGAAAGCAAUAUUACGCCUA | -1.28 ± 0.18 | -0.669 ± 0.23
GGAAAGCAAUAUUACGCGAU | -2.98 ± 0.18 | -1.02 ± 0.17
GGAAAGCAAUAUUACGCGGA | -1.96 ± 0.13 | -0.353 ± 0.1

Sequence | self-splicing fitness (ln) (30 °C) | self-splicing fitness (ln) (37 °C)
GGAAAGCAAUAUUACGCGGU | -3.32 ± 0.13 | -3.21 ± 0.2
GGAAAGCAAUAUUACGCUCA | -0.428 ± 0.12 | -0.303 ± 0.17
GGAAAGCAAUAUUACGCUUU | – | -2.56 ± 0.3
GGAAAGCAAUAUUACGGAAU | -2.55 ± 0.16 | -1.1 ± 0.15
GGAAAGCAAUAUUACGGACG | -0.879 ± 0.087 | 0.281 ± 0.1
GGAAAGCAAUAUUACGGAGC | -1.43 ± 0.17 | -1.49 ± 0.2
GGAAAGCAAUAUUACGGCGC | -0.392 ± 0.16 | 0.131 ± 0.21
GGAAAGCAAUAUUACGGCUA | -0.34 ± 0.2 | -0.931 ± 0.18
GGAAAGCAAUAUUACGGGCG | -0.494 ± 0.079 | -0.213 ± 0.11
GGAAAGCAAUAUUACGGUAU | -1.82 ± 0.11 | -1.31 ± 0.13
GGAAAGCAAUAUUACGGUUA | -1.33 ± 0.11 | -0.365 ± 0.099
GGAAAGCAAUAUUACGUACU | -1.25 ± 0.082 | -0.834 ± 0.13
GGAAAGCAAUAUUACGUCAG | -3.08 ± 0.38 | -2.25 ± 0.27
GGAAAGCAAUAUUACGUCUC | -3.22 ± 0.41 | –
GGAAAGCAAUAUUACGUGCG | -0.344 ± 0.11 | -0.596 ± 0.12
GGAAAGCAAUAUUACGUGUA | -1.92 ± 0.096 | -1.8 ± 0.13
GGAAAGCAAUAUUACGUGUC | -3.94 ± 0.31 | -1.91 ± 0.19
GGACAGCAAUAUUACGAAAA | -1.42 ± 0.19 | -1.36 ± 0.15
GGACAGCAAUAUUACGAAUC | -0.0402 ± 0.12 | 0.32 ± 0.17
GGACAGCAAUAUUACGACAA | -1.7 ± 0.21 | -0.0889 ± 0.12
GGACAGCAAUAUUACGACAG | -3.31 ± 0.21 | -2.33 ± 0.27
GGACAGCAAUAUUACGAGUU | -3.64 ± 0.19 | -1.24 ± 0.11
GGACAGCAAUAUUACGAUCG | -0.492 ± 0.099 | 0.519 ± 0.11
GGACAGCAAUAUUACGCAAU | -0.155 ± 0.13 | 0.311 ± 0.11
GGACAGCAAUAUUACGCUCC | – | -1.24 ± 0.46
GGACAGCAAUAUUACGCUUA | -0.319 ± 0.08 | 0.1 ± 0.1
